Experimental data published in patent US9127249B2, “Method for preparing metabolites of atorvastatin using bacterial cytochrome P450 and composition therefor” (INDUSTRY FOUNDATION OF CHONNAM NATIONAL UNIVERSITY, priority 2011, dated 2015).
Positions count from the first letter of the chain named. Names and notes keep the numbering of the source. “Also recorded” adds a separate entry of the source.

B1: Mutant #17: CYP102A1 mutant R47L/E64G/F81I/F87V/E143G/L188Q/E267V (SEQ ID NO 20) (protein)
chain: MTIKEMPQPKTFGELKNLPLLNTDKPVQALMKIADELGEIFKFEAPGLVTRYLSSQRLIKEACDGSRFDKNLSQALKFVRDIAGDGLVTSWTHEKNWKKAHNILLPSFSQQAMKGYHAMMVDIAVQLVQKWERLNADEHIEVPGDMTRLTLDTIGLCGFNYRFNSFYRDQPHPFITSMVRALDEAMNKQQRANPDDPAYDENKRQFQEDIKVMNDLVDKIIADRKASGEQSDDLLTHMLNGKDPETGEPLDDENIRYQIITFLIAGHVTTSGLLSFALYFLVKNPHVLQKAAEEAARVLVDPVPSYKQVKQLKYVGMVLNEALRLWPTAPAFSLYAKEDTVLGGEYPLEKGDELMVLIPQLHRDKTIWGDDVEEFRPERFENPSAIPQHAFKPFGNGQRACIGQQFALHEATLVLGMMLKHFDFEDHTNYELDIKETLTLKPEGFVVKAKSKKIPLGGIPSPSTEQSAKKVRKKVENAHNTPLLVLYGSNMGTAEGTARDLADIAMSKGFAPQVATLDSHAGNLPREGAVLIVTASYNGHPPDNAKQFVDWLDQASADDVKGVRYSVFGCGDKNWATTYQKVPAFIDETLAAKGAENIADRGEADASDDFEGTYEEWREHMWSDVAAYFNLDIENSEDNKSTLSLQFVDSAADMPLAKMHGAFSANVVASKELQQLGSERSTRHLEIALPKEASYQEGDHLGVIPRNYEGIVNRVTARFGLDASQQIRLEAEEEKLAHLPLGKTVSVEELLQYVELQDPVTRTQLRAMAAKTVCPPHKVELEALLEKQAYKEQVLAKRLTMLELLEKYPACEMEFSEFIALLPSISPRYYSISSSPHVDEKQASITVSVVSGEAWSGYGEYKGIASNYLANLQEGDTITCFVSTPQSGFTLPKDSETPLIMVGPGTGVAPFRGFVQARKQLKEQGQSLGEAHLYFGCRSPHEDYLYQEELENAQNEGIITLHTAFSRVPNQPKTYVQHVMERDGKKLIELLDQGAHFYICGDGSQMAPDVEATLMKSYADVYEVSEADARLWLQQLEEKGRYAKDVWAG
modifications: CYP102A1 mutant #17
B2: #16A1V2: chimera: heme domain of mutant #16 fused to V2 reductase domain of Table 4 (SEQ ID NO 22) (protein)
chain: B1 chain with L48R, G65E, I82F, V88F, G144E, Q189L, V268E
modifications: chimera #16A1V2
B3: Mutant #16: CYP102A1 mutant R47L/F81I/F87V/E143G/L188Q/E267V (SEQ ID NO 18) (protein)
chain: MTIKEMPQPKTFGELKNLPLLNTDKPVQALMKIADELGEIFKFEAPGLVTRYLSSQRLIKEACDESRFDKNLSQALKFVRDIAGDGLVTSWTHEKNWKKAHNILLPSFSQQAMKGYHAMMVDIAVQLVQKWERLNADEHIEVPGDMTRLTLDTIGLCGFNYRFNSFYRDQPHPFITSMVRALDEAMNKQQRANPDDPAYDENKRQFQEDIKVMNDLVDKIIADRKASGEQSDDLLTHMLNGKDPETGEPLDDENIRYQIITFLIAGHVTTSGLLSFALYFLVKNPHVLQKAAEEAARVLVDPVPSYKQVKQLKYVGMVLNEALRLWPTAPAFSLYAKEDTVLGGEYPLEKGDELMVLIPQLHRDKTIWGDDVEEFRPERFENPSAIPQHAFKPFGNGQRACIGQQFALHEATLVLGMMLKHFDFEDHTNYELDIKETLTLKPEGFVVKAKSKKIPLGGIPSPSTEQSAKKVRKKAENAHNTPLLVLYGSNMGTAEGTARDLADIAMSKGFAPQVATLDSHAGNLPREGAVLIVTASYNGHPPDNAKQFVDWLDQASADEVKGVRYSVFGCGDKNWATTYQKVPAFIDETLAAKGAENIADRGEADASDDFEGTYEEWREHMWSDVAAYFNLDIENSEDNKSTLSLQFVDSAADMPLAKMHGAFSTNVVASKELQQPGSARSTRHLEIELPKEASYQEGDHLGVIPRNYEGIVNRVTARFGLDASQQIRLEAEEEKLAHLPLAKTVSVEELLQYVELQDPVTRTQLRAMAAKTVCPPHKVELEALLEKQAYKEQVLAKRLTMLELLEKYPACEMKFSEFIALLPSIRPRYYSISSSPRVDEKQASITVSVVSGEAWSGYGEYKGIASNYLAELQEGDTITCFISTPQSEFTLPKDPETPLIMVGPGTGVAPFRGFVQARKQLKEQGQSLGEAHLYFGCRSPHEDYLYQEELENAQSEGIITLHTAFSRMPNQPKTYVQHVMEQDGKKLIELLDQGAHFYICGDGSQMAPAVEATLMKSYADVHQVSEADARLWLQQLEEKGRYAKDVWAG
modifications: CYP102A1 mutant#16

Assays:
[1] = Turnover number of atorvastatin oxidation by CYP102A1 enzymes (HPLC); type: biochemical; settings: 80 μM atorvastatin, FIG. 13; for turnover number in oxidation of atorvastatin: 50 pmol enzyme, NADPH-generating system, 37° C., 30 minutes, production of 4-hydroxylated metabolite by HPLC
Description: It was examined whether the wild-type CYP102A1, the CYP102A1 mutants, and the chimeras derived from the CYP1.02A1 mutants may oxidize atorvastatin. Typical steady-state reactions was performed by adding 50 pmol CYP102A1 and 80 μM substrate to 0.25 ml of 100 mM potassium phosphate buffer solution (pH 7.4). In order to initiate reactions, the NADPH-generating system was added thereto (final concentrations: 10 mM glucose 6-phosphate, 0.5 mM NADP^+, and 1 IU […] per ml). A stock solution of atorvastatin (20 mM) was prepared in DMSO and diluted into the enzyme reaction solution to have a final organic solvent concentration of <1% (v/v).
In order to measure human CYP3A4 activity, 50 pmol P450, 100 pmol NADPH-P450 reductase (CPR), 100 pmol cytochrome b5, and 45 μM L-α-dilauroyl-sn-glycero-3-phosphocholine (DLPC) were used instead of 50 pmol CYP102A1. After the reaction solution was reacted for 30 minutes at 37° C., the reaction was terminated with 2-fold of ice-cold dichloromethane.
After centrifugation of the reaction mixture, a supernatant was removed and a solvent was evaporated under nitrogen gas and analyzed using HPLC. A sample (30 ul) was injected into Gemini C18 column (4.6 mm×150 mm, 5 um. Phenomenex. Torrance, Calif.). As a mobile phase A, water containing 0.1% formic acid/acetonitrile (80/20, v/v) was used, and as a mobile phase B, acetonitrile/0.1% formic acid (90/10, v/v) was used. The mobile phase A/B (70/30, v/v) was flowed at a rate of 1 ml·min^−1 using a gradient pump (LC-20AD, Shimadzu, Kyoto, Japan). Elution solutions were detected by UV at 260 nm.
In order to examine whether or not CYP102A1 (P450 BM3) may oxidize atorvastatin, the abilities of the wild-type CYP102A1 (P450 BM3), the mutants thereof, and the chimeras derived from the CYP102A1 mutants to oxidize atorvastatin were measured at a fixed substrate concentration (80 μM).
In order to recognize production rate of atorvastatin oxides by wild-type CYP102A1, CYP102A1 mutants, and chimeras derived from the CYP102A1 mutants, the turnover number was determined in the reaction using 80 μM statin.
The term “turnover number” means the number of substrate molecules that a molecule of an enzyme may convert into products per minute and indicates conversion frequency.
The production rate of 4-hydroxylated metabolite was determined by HPLC as described above.

[2] = Total turnover number (TTN) of atorvastatin oxidation; type: biochemical; settings: reacted for 4 hours
Description: In order to recognize production rate of atorvastatin metabolites by the CYP102A1 mutant (#16 in Table 2) and the chimeras (#16A1V2 and #17A1V2) derived from the CYP102A1 mutants, total turnover numbers (TTNs; mol product/mol catalyst) were determined in reactions using total 240 μM atorvastatin.
The term “total turnover number (TTN)” means the number of substrate molecules converted into metabolites by enzymes for the total reaction time.
The total turnover numbers (TTNs) were determined by comparing the results under three conditions. First, the reaction was performed by adding a NADPH-generating system at 37° C. for 1 hour in the presence of 80 μM substrate. In addition, second, after reaction was performed for 1 hour in the presence of 80 μM substrate, 80 μM substrate was additionally added to the reaction mixture, and the reaction was further performed for 1 hour. Finally, after reaction was performed for 1 hour in the presence of 80 μM substrate, 80 μM substrate was additionally added to the reaction mixture, and the reaction was further performed for 1 hour. Then, 80 μM substrate was additionally added to the reaction mixture, and the reaction was further performed for 2 hours.
The production rate of the atorvastatin metabolites was determined using HPLC. […]

Molecule | turnover number in oxidation of atorvastatin [1] | activity compared with human CYP3A4 (total turnover number) [2] | activity compared with human CYP3A4 (turnover number) [1]
B1 | high turnover number |  | 
B2 | high turnover number; also recorded: most excellent turnover number | activity higher than that of the human CYP3A4 | same activity as that of the human CYP3A4
B3 | high turnover number |  | 
